# Source: FireProtDB (doi:10.1021/bi00072a011)
# Several values for one entry are separate records, joined by “and”; a condition that tells them apart may be missing. Equal values may be shown once.
# B1: Tryptophan synthase alpha chain wild type, P00929 (protein)
# chain: MERYENLFAQLNDRREGAFVPFVTLGDPGIEQSLKIIDTLIDAGADALELGVPFSDPLADGPTIQNANLRAFAAGVTPAQCFEMLALIREKHPTIPIGLLMYANLVFNNGIDAFYARCEQVGVDSVLVADVPVEESAPFRQAALRHNIAPIFICPPNADDDLLRQVASYGRGYTYLLSRSGVTGAENRGALPLHHLIEKLKEYHAAPALQGFGISSPEQVSAAVRAGAAGAISGSAIVKIIEKNLASPKQMLAELRSFVSAMKAASRA
# Settings: Salmonella typhimurium (strain LT2 / SGSC1412 / ATCC 700720); pH 7.8; 25 °C; Urea; CD; Potassium phosphate 10 mM; transition: 3; whole UniProt chain shown
protein,measurement,value
B1,denaturant m value,2.7 kcal/mol/M and 1.6 kcal/mol/M
same,denaturant midpoint (higher = more stable),2.75 M and 3.63 M
same,unfolding free energy,7.4 kcal/mol and 5.8 kcal/mol
